Data: patent US20200115464A1 (Regeneron, published 2020)

Tests used:
[1] = biological target: T1, human CD20 on cells (Raji, CD3-, CD20+ human B-cell line; B16F10.9/CD20 cells) (human, UniProt P11836 1-297); test: cell-based or functional assay
T1 sequence (looked up): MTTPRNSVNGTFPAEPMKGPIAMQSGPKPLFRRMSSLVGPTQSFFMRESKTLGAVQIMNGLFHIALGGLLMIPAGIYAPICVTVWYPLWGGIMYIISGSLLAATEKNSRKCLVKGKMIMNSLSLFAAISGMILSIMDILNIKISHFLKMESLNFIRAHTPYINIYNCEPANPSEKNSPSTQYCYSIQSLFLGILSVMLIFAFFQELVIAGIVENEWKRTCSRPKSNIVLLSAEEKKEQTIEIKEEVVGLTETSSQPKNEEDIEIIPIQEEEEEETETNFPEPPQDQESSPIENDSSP

[2] = biological target: T1, human CD20 on cells (Raji, CD3-, CD20+ …); test: cell-based or functional assay; remark: listed apart in the source
[3] = biological target: T2, His-tagged human FcγRIIA (H131) (human, UniProt P12318 36-218, limits assumed); test: SPR steady-state, His-captured FcγR, antibody injected, 25 C
T2 construct: also called hFcyRIIA (H131)
T2 sequence (looked up): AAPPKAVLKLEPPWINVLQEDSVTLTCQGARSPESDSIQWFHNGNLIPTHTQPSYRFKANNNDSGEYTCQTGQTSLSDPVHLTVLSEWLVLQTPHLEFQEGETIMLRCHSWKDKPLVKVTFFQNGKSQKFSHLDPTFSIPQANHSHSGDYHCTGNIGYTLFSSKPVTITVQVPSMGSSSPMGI

[4] = biological target: T3, His-tagged human FcγRIIA (R131) (human, UniProt P12318 36-218, limits assumed); test: as above
T3 construct: also called human FcyRIIA (R131)
T3 sequence (looked up): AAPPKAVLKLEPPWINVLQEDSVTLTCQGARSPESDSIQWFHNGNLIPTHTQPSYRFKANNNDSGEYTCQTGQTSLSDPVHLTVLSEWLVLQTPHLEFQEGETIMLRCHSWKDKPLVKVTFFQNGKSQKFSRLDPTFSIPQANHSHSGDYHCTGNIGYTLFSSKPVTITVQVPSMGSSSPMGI

[5] = biological target: T4, His-tagged cynomolgus FcγRIIA (cynomolgus monkey, UniProt A0A140HDN0 30-216); test: as above
T4 construct: also called cyno FcyRIIA
T4 sequence: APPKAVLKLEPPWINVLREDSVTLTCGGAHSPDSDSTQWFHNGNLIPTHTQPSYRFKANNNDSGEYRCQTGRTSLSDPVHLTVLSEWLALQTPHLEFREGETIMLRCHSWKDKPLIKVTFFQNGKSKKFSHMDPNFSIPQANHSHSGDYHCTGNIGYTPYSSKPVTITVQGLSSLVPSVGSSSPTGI

His-tagged human FcγRIIB = biological target: T5, His-tagged human FcγRIIB (human, UniProt P31994 46-217, limits assumed); test: as above
T5 construct: also called human FcyRIIB
T5 sequence (looked up): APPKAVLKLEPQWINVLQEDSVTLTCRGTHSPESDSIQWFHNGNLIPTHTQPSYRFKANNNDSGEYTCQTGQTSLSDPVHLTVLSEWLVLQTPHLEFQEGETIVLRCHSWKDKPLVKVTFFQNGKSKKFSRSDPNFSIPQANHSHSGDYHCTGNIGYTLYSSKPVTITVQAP

[6] = biological target: T6, His-tagged cynomolgus FcγRIIB (cynomolgus monkey, UniProt A0A140HDP4 46-217); test: as above
T6 construct: also called cyno FcyRIIB
T6 sequence: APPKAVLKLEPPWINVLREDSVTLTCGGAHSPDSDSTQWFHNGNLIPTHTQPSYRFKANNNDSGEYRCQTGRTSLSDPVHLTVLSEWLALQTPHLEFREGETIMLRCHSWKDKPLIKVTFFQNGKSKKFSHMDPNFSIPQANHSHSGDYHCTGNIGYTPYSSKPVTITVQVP

[7] = biological target: T7, His-tagged human FcγRIIIA (V176) (human, UniProt P08637 17-208); test: as above
T7 construct: also called human FcyRIIIA (V176)

[8] = biological target: T8, His-tagged human FcγRIIIA (F176) (human, UniProt P08637 17-208); test: as above
T8 construct: also called human FcyRIIIA (F176)

[9] = biological target: T9, His-tagged cynomolgus FcγRIIIA (cynomolgus monkey, UniProt Q8SPW2 17-208, limits assumed); test: as above
T9 construct: also called cyno FcyRIIIA

[10] = biological target: T10, His-tagged human FcγRIIIB (human, UniProt O75015 17-200); test: as above
T10 construct: also called human FcyRIIIB

His-tagged human FcγRI = biological target: T11, His-tagged human FcγRI (human, UniProt P12314 16-288); test: SPR (Biacore T200), His-captured human FcγRI, antibody injected, 25 C
T11 construct: also called human FcRγI; hFcγRI
Procedure: Briefly, SPR experiments were performed at 25° C. on a Biacore T200 instrument employing a carboxymethyl dextran-coated (CM-5) chip. A mouse monoclonal anti-penta-histidine antibody (GE Healthcare) was immobilized on the surface of the CM-5 sensor chip using standard amine-coupling chemistry. […] Kinetic association (kₐ) and dissociation (kd) rate constants were determined by processing and fitting the data to a 1:1 binding model using Scrubber 2.0 curve fitting software. Binding dissociation equilibrium constants (KD) and dissociative half-lives (t_{1/2}) were calculated from the kinetic rate constants as: KD (M)=kd/kₐ; and t_{1/2}(min)=(ln 2/(60*kd).

[11] = biological target: T1, human CD20 on cells (Raji, CD3-, CD20+ …); test: cell-based or functional assay; remark: listed apart in the source
[12] = biological target: T1, human CD20 on cells (Raji, CD3-, CD20+ …); test: FACS, serially diluted antibody on Raji cells (CD3-, CD20+)
Procedure: (§1) FACS data was acquired using the following protocol: Cells at 2×10⁵ per well were incubated with serially diluted antibodies for 30 min on ice. Post incubation, cells were washed and appropriate secondary (Jurkat, RAJI cells) or cocktail of secondary antibodies (for cyno PBMC) was added and incubated for an additional 30 minutes. After incubation, cells were washed, re-suspended in cold PBS containing 1% BSA and analyzed by flow cytometry on a BD FACS Canto II. Jurkat and Raji cells were gated by side and forward scatters, while cynomolgus T cells were also gated as a CD2+CD4+ population. The EC₅₀s for cell binding titration were determined using Prism software with values calculated using a 4-parameter non-linear regression analysis.

[13] = biological target: T12, human CD3 on Jurkat cells (CD3+, CD20- human T-cell line) (human, UniProt P07766 23-207; P04234 22-171; P09693 23-182; P20963 22-164); test: FACS, serially diluted antibody on Jurkat cells (CD3+, CD20-)
T12 construct: whole, on cells; SP34 is said to react with the epsilon chain
Procedure: as §1

[14] = biological target: T13, cynomolgus CD3 on T cells of cynomolgus PBMCs (mkT cells) (cynomolgus monkey); test: FACS, serially diluted antibody on cynomolgus PBMC T cells (mkT cells)
T13 construct: whole, on cells; also called cynomolgus T cells; monkey T-cells
Procedure: as §1

T10 sequence (O75015 17-200 limits assumed): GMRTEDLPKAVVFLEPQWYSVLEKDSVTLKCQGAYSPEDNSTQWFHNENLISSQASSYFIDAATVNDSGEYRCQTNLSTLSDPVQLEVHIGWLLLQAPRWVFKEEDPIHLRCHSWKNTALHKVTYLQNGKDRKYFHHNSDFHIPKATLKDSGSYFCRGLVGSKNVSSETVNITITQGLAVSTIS
T7 sequence (P08637 17-208 F176V limits assumed): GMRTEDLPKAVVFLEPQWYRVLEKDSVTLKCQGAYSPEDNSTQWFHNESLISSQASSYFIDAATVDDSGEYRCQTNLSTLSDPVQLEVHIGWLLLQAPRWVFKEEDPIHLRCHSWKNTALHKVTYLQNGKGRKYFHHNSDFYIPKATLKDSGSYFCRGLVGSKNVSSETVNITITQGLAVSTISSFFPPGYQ
T8 sequence (P08637 17-208 limits assumed): as the sequence (P08637 17-208 F176V limits assumed) above, with V160F counted along it
T11 sequence (P12314 16-288 limits assumed): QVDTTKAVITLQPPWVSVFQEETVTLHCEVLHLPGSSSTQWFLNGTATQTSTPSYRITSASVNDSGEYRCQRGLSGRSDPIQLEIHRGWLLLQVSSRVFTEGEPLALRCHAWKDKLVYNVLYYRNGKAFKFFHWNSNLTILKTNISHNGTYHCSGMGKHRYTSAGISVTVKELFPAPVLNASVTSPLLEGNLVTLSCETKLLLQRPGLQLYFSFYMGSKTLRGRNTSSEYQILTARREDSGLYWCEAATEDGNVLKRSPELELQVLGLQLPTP
T9 sequence (Q8SPW2 17-208 limits assumed): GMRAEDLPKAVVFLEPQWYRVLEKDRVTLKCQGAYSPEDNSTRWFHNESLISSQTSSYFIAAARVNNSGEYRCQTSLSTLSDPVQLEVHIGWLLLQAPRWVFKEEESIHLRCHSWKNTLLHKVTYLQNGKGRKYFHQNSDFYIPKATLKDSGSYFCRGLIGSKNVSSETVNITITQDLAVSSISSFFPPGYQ

Kd [3] [nM] | Kd [4] [nM] | Kd [5] [nM] | Kd (His-tagged human FcγRIIB) [nM] | Kd [6] [nM] | binding result [7] | binding result [8] | Kd [9] [nM] | binding result [10] | binding result (His-tagged human FcγRI) | EC50 [12] [nM] | EC50 [13] [nM] | EC50 [14] [nM] | Binder | Raji Cytotoxicity Activated Human T-cells [M] (EC50, calcein release) [1] | Raji Cytotoxicity Activated Monkey T-cells [M] (EC50, calcein release) [1] | % Survival B16F10.9/CD20 cells [M] (EC50, target-specific killing, FACS) [2] | Raji Cytotoxicity Human T-cells [M] (EC50, calcein release) [11] | Raji Cytotoxicity Monkey T-cells [M] (EC50, calcein release) [11]
120 | 193 | 231 | 1230 | 139 | no binding | no binding | 663 | no binding | no binding |  |  |  | Antibody 1 (CD3×CD20-chimericFc bispecific antibody) (bispecific antibody, human IgG4 S228P, Only the light chain variable region is tied to this antibody; also called Ab 1; Ab1) heavy 1: EVQLVESGGGLVQPGRSLRLSCVASGFTFNDYAMHWVRQAPGKGLEWVSVISWNSDSIGYADSVKGRFTISRDNAKNSLYLQMHSLRAEDTALYYCAKDNHYGSGSYYYYQYGMDVWGQGTTVTVSSASTKGPSVFPLAPCSRSTSESTAALGCLVKDYFPEPVTVSWNSGALTSGVHTFPAVLQSSGLYSLSSVVTVPSSSLGTKTYTCNVDHKPSNTKVDKRVESKYGPPCPPCPAPPVAGPSVFLFPPKPKDTLMISRTPEVTCVVVDVSQEDPEVQFNWYVDGVEVHNAKTKPREEQFNSTYRVVSVLTVLHQDWLNGKEYKCKVSNKGLPSSIEKTISKAKGQPREPQVYTLPPSQEEMTKNQVSLTCLVKGFYPSDIAVEWESNGQPENNYKTTPPVLDSDGSFFLYSRLTVDKSRWQEGNVFSCSVMHEALHNHYTQKSLSLSLGK heavy 2: EVQLVESGGGLVQPGRSLRLSCAASGFTFDDYTMHWVRQAPGKGLEWVSGISWNSGSIGYADSVKGRFTISRDNAKKSLYLQMNSLRAEDTALYYCAKDNSGYGHYYYGMDVWGQGTTVTVASASTKGPSVFPLAPCSRSTSESTAALGCLVKDYFPEPVTVSWNSGALTSGVHTFPAVLQSSGLYSLSSVVTVPSSSLGTKTYTCNVDHKPSNTKVDKRVESKYGPPCPPCPAPPVAGPSVFLFPPKPKDTLMISRTPEVTCVVVDVSQEDPEVQFNWYVDGVEVHNAKTKPREEQFNSTYRVVSVLTVLHQDWLNGKEYKCKVSNKGLPSSIEKTISKAKGQPREPQVYTLPPSQEEMTKNQVSLTCLVKGFYPSDIAVEWESNGQPENNYKTTPPVLDSDGSFFLYSRLTVDKSRWQEGNVFSCSVMHEALHNRFTQKSLSLSLGK VL: EIVMTQSPATLSVSPGERATLSCRASQSVSSNLAWYQQKPGQAPRLLIYGASTRATGIPARFSGSGSGTEFTLTISSLQSEDFAVYYCQHYINWPLTFGGGTKVEIKR | 2.5e-11 | 9.1e-12 | 1.95e-11 |  | 
117 | 205 | 235 | 2330 | 146 | no binding | no binding | 424 | no binding | no binding |  |  |  | Antibody 2 (CD3×CD20-chimericFc bispecific antibody) (bispecific antibody, human IgG1, also called Ab 2) heavy 1: EVQLVESGGGLVQPGRSLRLSCVASGFTFNDYAMHWVRQAPGKGLEWVSVISWNSDSIGYADSVKGRFTISRDNAKNSLYLQMHSLRAEDTALYYCAKDNHYGSGSYYYYQYGMDVWGQGTTVTVSSASTKGPSVFPLAPSSKSTSGGTAALGCLVKDYFPEPVTVSWNSGALTSGVHTFPAVLQSSGLYSLSSVVTVPSSSLGTQTYICNVNHKPSNTKVDKKVEPKSCDKTHTCPPCPAPPVAGPSVFLFPPKPKDTLMISRTPEVTCVVVDVSQEDPEVQFNWYVDGVEVHNAKTKPREEQFNSTYRVVSVLTVLHQDWLNGKEYKCKVSNKGLPSSIEKTISKAKGQPREPQVYTLPPSRDELTKNQVSLTCLVKGFYPSDIAVEWESNGQPENNYKTTPPVLDSDGSFFLYSKLTVDKSRWQQGNVFSCSVMHEALHNHYTQKSLSLSPGK heavy 2: EVQLVESGGGLVQPGRSLRLSCAASGFTFDDYTMHWVRQAPGKGLEWVSGISWNSGSIGYADSVKGRFTISRDNAKKSLYLQMNSLRAEDTALYYCAKDNSGYGHYYYGMDVWGQGTTVTVASASTKGPSVFPLAPSSKSTSGGTAALGCLVKDYFPEPVTVSWNSGALTSGVHTFPAVLQSSGLYSLSSVVTVPSSSLGTQTYICNVNHKPSNTKVDKKVEPKSCDKTHTCPPCPAPPVAGPSVFLFPPKPKDTLMISRTPEVTCVVVDVSQEDPEVQFNWYVDGVEVHNAKTKPREEQFNSTYRVVSVLTVLHQDWLNGKEYKCKVSNKGLPSSIEKTISKAKGQPREPQVYTLPPSRDELTKNQVSLTCLVKGFYPSDIAVEWESNGQPENNYKTTPPVLDSDGSFFLYSKLTVDKSRWQQGNVFSCSVMHEALHNRFTQKSLSLSPGK VL: EIVMTQSPATLSVSPGERATLSCRASQSVSSNLAWYQQKPGQAPRLLIYGASTRATGIPARFSGSGSGTEFTLTISSLQSEDFAVYYCQHYINWPLTFGGGTKVEIKR |  |  |  |  | 
 |  |  |  |  |  |  |  |  |  | 59.9 | 38.5 | 8740 | (Control) Antibody 4, CD3×CD20 antibody-wild-type Fc (wtFc) (bispecific antibody, human IgG1, Same variable regions as Antibody 1 and Antibody 2, wild-type IgG1 CH; also called Control Ab 4; Control 4) heavy 1: not shown heavy 2: not shown VL: EIVMTQSPATLSVSPGERATLSCRASQSVSSNLAWYQQKPGQAPRLLIYGASTRATGIPARFSGSGSGTEFTLTISSLQSEDFAVYYCQHYINWPLTFGGGTKVEIKR | 1.57e-11 | 1.73e-12 | 1.28e-11 | 5.63e-11 | 1.27e-12
